According to the nanobody polyreactivity screen of Harvey et al. (2022):

Test: yeast display, Sf9 membrane polyspecificity reagent, FACS + sequencing; frameworks hold sequencing errors
How it was run: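 Nanobodies from a synthetic yeast display library (Saccharomyces cerevisiae BJ5465), induced 36–48 hours with galactose, were stained 1 hour at 4 °C with 10% biotinylated, detergent-solubilized Sf9 membrane reagent, enriched on streptavidin microbeads, then FACS-sorted. Anti-HA (expression) and streptavidin (reagent binding) fluorescence set low and high (top ~1%) gates. Polyreactivity labels come from the gate of origin. Genes were colony-PCR amplified, MiSeq 2 × 250 sequenced and filtered by CDR length.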

Sequence	polyreactivity (PSR sort gate)
QVQLVESGGGLVQAGGSLRLSCAASGTFVTYMGWYRQAPGKERELVAVISASGDSVKGRFTISRDNAKNTVYLQMNSLNPEDTAVYYCARELYRRVWHHWAYWAAYDYWGQGTQVTVSS	low polyreactivity
QVQLVESGGGLVQAGGSLRLSCAASGTFWWYAMGWYRQAPGKERELVASINRGGSTYYADSVKGRFTISRDNAKNTVYLQMNSLKPEDSAVYYCNARWIGRLTPYRRATYYYWGQGTQVTVSS	high polyreactivity
QVQLVESGGGLVQAGGSLRLSCAASGTFYYNTMGCYRQAPGKERELVAAITSGGRTYADSVKGRFTISRDNAKNTVYLQMNSLKEEDTAVYYCAVDKPYPYRIIIWYEYDYWGQGNQVTVSS	low polyreactivity
QVQLVESGGGLVQAGGSLRLSCAASGTIFIVNAMGWYRQAPGKERELVAAITQGDGSTYYADSVKGRFTISRDNAKNTVYLQMNSLKPEDTAVYYCAVGDLVAYTWQEYNYWGQGTQVNVSS	low polyreactivity
QVQLVESGGGLVQAGGSLRLSCAASGTIFSDYAMGWYRQAPGKERELVATITSRGGSTHYADSVKGRFTISRDNAKNTVYLQMNSLKPEDTAVYYCIVRRLYVYTITSGDVDYDYWGQGTQVTVSS	low polyreactivity
QVQLVESGGGLVQAGGSLRLSCAASGTIFTNAMGCYRQEPGKERQLVAAISSSGGSTYYADSVKGRFTISRDNAKNTVYLQMNSLKPEDTAVYYCAADGEVSLWTGYDYDYWGKGTQVTVSS	low polyreactivity
QVQLVESGGGLVQAGGSLRLSCAASGTIFYINAMGWYRQAPGKERELVAAIRSGGSTNYADSVKGRFTISRDNAKNTVYLQMNSLKPEDTAVYYCNARSRSYVPYYYWGQGTQVTVSS	high polyreactivity
QVQLVESGGGLVQAGGSLRLSCAASGTILRPYAMGWYRQAPGKERELVAAISTSGGRTFYADSVKGRFTISRDNAKNTVYLQMYSLNPEDTAVYYCAAVGYRFGSNYWGQGTQVTVSS	high polyreactivity
QVQLVESGGGLVQAGGSLRLSCAASGTMGWYRQAPGKERELVAAISQSGGSTYYADSVKGRFTISRDNAKNTVYLQMNSLKPEDTAVYYCAVDPRYGHPRRDYWGQGTQVTVSS	low polyreactivity
QVQLVESGGGLVQAGGSLRLSCAASGTTFAGNAMGWYRQAPGKEREFVAAITISGGSTYYADSVKGRFTISRDNAKNTVYLQMNRLKPEDTAVYYCAADYAYYVSLPSRFVYAGYDYWGQGTQVTVSS	low polyreactivity
QVQLVESGGGLVQAGGSLRLSCAASGTTFEVNAMGWYRQAPGKERELVATITRSGGSTYYADSVKGRFTISRDNAKNTVYLQMNSLKPEDTAVYYCNALWELKWGQGTQVTVSS	low polyreactivity
QVQLVESGGGLVQAGGSLRLSCAASGTTFGRNAMGWYRQAPGKERELVAAINSGGGTYYADSVKGRFTISRDNAKNTVYFQMNSLKPEDTAVYYCAAARRYGNYDYWGQGTQVTVSS	low polyreactivity
QVQLVESGGGLVQAGGSLRLSCAASGTTFGRNTMGWYRQAPGKERELVAAISKSGGSTRYADSVKGRFTISRDNAKNTVYLQMNRLKAEDTAFYYCAARVYSLGYGGDYWGQGTQVTVSS	high polyreactivity
QVQLVESGGGLVQAGGSLRLSCAASGTTFSPNAMGWYRQAPGKERELVAAIRGSGSRTYADSVKGRFTISRDNAKNSVYLQMNSLKPEDTAVYYCAAEWIYDTDYWYYSYYYWGQGTQVTVSS	low polyreactivity
QVQLVESGGGLVQAGGSLRLSCAASGTTIGVNAMGWYRQAPGKERDLVAAISRRGASTYYADSVKGRFTISLDNAKNTVYLQMNSLKPEETAVYYCAKAQVHDYIVSMDRYGYWGQGTQVTVSS	low polyreactivity
QVQLVESGGGLVQAGGSLRLSCAASGTTNDYYDMGWYRQAPGKERELDAAISSGGDSTYYADSVMGRFTISRDNAKNTVYLQMNSLKPEDTAVYYCAAAVYYGQSVWYYYWGQGTEVTVSS	high polyreactivity

Sequence	polyreactivity (PSR sort gate)
QVQLVESGGGLVQAGGSLRLSCAASGVNAMGWYRQAPGKEREFVAAITSIGGSTYYADSVKGRFTISRDNAKNTVYLQMNSLKPEDTAVYYCNTDRGPVKVSPLYESWGQGTQVTVSS	low polyreactivity
QVQLVESGGGLVQAGGSLRLSCAASGVTFHGYTMGWYRQAPGKERELVAAITSGGGTNYADSVKGRFTISRDNAKNTVYLQMNSLKPEDTAVYYCAAGFHKRVTPEILYDYWGQGTQVTVSS	low polyreactivity
QVQLVESGGGLVQAGGSLRLSCAASGYIFCKYAMGWYRQARGKERELVAGITRGGTTYYADSVKGRFTISRDNAKNTVYLQMNSLKPEVTAVYYCARDLLGVSSSRYNSWGQGTQVTVSS	high polyreactivity
QVQLVESGGGLVQAGGSLRLSCAASGYIFDGNAMGWYRKAPGKERELVAPITWTGGSTYYADSVKGRFTISRDNAKNTVYLQMNSLKPEDTAVYYCAKPYDPGPYHSSYRATDDYWGQGTQVTVSS	low polyreactivity
QVQLVESGGGLVQAGGSLRLSCAASGYIFDIYAMGWYRQAPGKERELVAVITRSGGGTYYADSVKGRFTISRDNAKNSVYLQMNSLKPEDTAVYYCAAESYVYGGSDYDYWGQGTQVTVSS	low polyreactivity
QVQLVESGGGLVQAGGSLRLSCAASGYIFDRYAMGWYRQAPGKERELVAAISGRGGSTYYADSVKGRFTISRDNAKNTVSLQMNSLKPEDTAVYYCARDVYVRNGQRARYDSWGQGTQVTVSS	high polyreactivity
QVQLVESGGGLVQAGGSLRLSCAASGYIFFFYAMGWYRQAPGKERELVASITYRGGSTYYADSVKGRFTISRDNAKNTVYLQMNSLKPEDTAVYYCNVDGGGPLGPQGFPFDYWGQGTQVTVSS	low polyreactivity
QVQLVESGGGLVQAGGSLRLSCAASGYIFFRNAMGWSRQAPGKEREFVADIRFSGGNTYYADSVKGRFTISRDNAKNTVYFQKISLKPEDTAVYYCSADLVYTYAYDYWGQGTQVTVSS	low polyreactivity
QVQLVESGGGLVQAGGSLRLSCAASGYIFFTNAMGWYRQAPGKERELVAAISTIDGSTYYADSVKGRFTISRDNAKNTVYLQMNSLKPEDTAVYYCATDTPFISSLAYDYWGQGTQVTVSS	low polyreactivity
QVQLVESGGGLVQAGGSLRLSCAASGYIFGFYAKGWYRQAPGKERELVARITYSGTSTYYADSVKGRFTISRDNAKNTVYLQMNSLKPEDTAVYYCAKRNKRSAWDSDEYDYWGQGTQVTVSS	low polyreactivity
QVQLVESGGGLVQAGGSLRLSCAASGYIFGGYAMGWYRQAPGKERELVAGISIGVGSTYYADSVKGRFTISRDNAKNTVYLQMNSLKPEDTAVYYCNRDSVGYDYWGQGTQVTVSS	low polyreactivity
QVQLVESGGGLVQAGGSLRLSCAASGYIFGRNAMGWYRQAPGKERELVAVSSSRGSRTYYADSVKGRFTISRDNAKNTVYLQMNSLKPEDTAVYYCAVRGVVNFDYWGQGTQVTVSS	high polyreactivity
QVQLVESGGGLVQAGGSLRLSCAASGYIFGVYTMGWYRQAPGKERELVAGISSGSSTYYADSVKGRFTISRDNAKNTVYLQMNSLKPEDTAVYYCAARERSRTYTSRKQVDYGYGYWGQGTQVTVSS	low polyreactivity
QVQLVESGGGLVQAGGSLRLSCAASGYIFHLYGMGWYRQAPGKERELVARISYRGGSTYYADSVKGRFTISRDNAKNTVYLQMNSLKTEDTAVYYCAKDYYKHYYWGQGTQVTVSS	high polyreactivity
QVQLVESGGGLVQAGGSLRLSCAASGYIFHSYMGSYRQAPGKETELVAAITSGGSTYYADSVKGRFTISRDNAKNTFFLKMNSLKPEDTAVYYCGAGWWYYLHMDYWGQGTQVTVSS	high polyreactivity
QVQLVESGGGLVQAGGSLRLSCAASGYIFIDYAMGWYRQAPGKERELVAAIRWSDSTYYADSVKGRFTISRDNAKNTVYLEMNSLKPEDTAVYYCAAEDSIRWVRRSRWYYYWGQGTQVTVSS	low polyreactivity
